Molecular target: GFP-tagged CSB (UniProt Q03468)
Experiment: affinity purification with mass spectrometry; label-free quantification and iBAQ; GFP-CSB pulled down with GFP Trap beads from U2OS CSB-KO cells; untreated against 20 J/m^2 UV-C with 1 h recovery

UniProt Q03468, sequence (Q03468 whole entry): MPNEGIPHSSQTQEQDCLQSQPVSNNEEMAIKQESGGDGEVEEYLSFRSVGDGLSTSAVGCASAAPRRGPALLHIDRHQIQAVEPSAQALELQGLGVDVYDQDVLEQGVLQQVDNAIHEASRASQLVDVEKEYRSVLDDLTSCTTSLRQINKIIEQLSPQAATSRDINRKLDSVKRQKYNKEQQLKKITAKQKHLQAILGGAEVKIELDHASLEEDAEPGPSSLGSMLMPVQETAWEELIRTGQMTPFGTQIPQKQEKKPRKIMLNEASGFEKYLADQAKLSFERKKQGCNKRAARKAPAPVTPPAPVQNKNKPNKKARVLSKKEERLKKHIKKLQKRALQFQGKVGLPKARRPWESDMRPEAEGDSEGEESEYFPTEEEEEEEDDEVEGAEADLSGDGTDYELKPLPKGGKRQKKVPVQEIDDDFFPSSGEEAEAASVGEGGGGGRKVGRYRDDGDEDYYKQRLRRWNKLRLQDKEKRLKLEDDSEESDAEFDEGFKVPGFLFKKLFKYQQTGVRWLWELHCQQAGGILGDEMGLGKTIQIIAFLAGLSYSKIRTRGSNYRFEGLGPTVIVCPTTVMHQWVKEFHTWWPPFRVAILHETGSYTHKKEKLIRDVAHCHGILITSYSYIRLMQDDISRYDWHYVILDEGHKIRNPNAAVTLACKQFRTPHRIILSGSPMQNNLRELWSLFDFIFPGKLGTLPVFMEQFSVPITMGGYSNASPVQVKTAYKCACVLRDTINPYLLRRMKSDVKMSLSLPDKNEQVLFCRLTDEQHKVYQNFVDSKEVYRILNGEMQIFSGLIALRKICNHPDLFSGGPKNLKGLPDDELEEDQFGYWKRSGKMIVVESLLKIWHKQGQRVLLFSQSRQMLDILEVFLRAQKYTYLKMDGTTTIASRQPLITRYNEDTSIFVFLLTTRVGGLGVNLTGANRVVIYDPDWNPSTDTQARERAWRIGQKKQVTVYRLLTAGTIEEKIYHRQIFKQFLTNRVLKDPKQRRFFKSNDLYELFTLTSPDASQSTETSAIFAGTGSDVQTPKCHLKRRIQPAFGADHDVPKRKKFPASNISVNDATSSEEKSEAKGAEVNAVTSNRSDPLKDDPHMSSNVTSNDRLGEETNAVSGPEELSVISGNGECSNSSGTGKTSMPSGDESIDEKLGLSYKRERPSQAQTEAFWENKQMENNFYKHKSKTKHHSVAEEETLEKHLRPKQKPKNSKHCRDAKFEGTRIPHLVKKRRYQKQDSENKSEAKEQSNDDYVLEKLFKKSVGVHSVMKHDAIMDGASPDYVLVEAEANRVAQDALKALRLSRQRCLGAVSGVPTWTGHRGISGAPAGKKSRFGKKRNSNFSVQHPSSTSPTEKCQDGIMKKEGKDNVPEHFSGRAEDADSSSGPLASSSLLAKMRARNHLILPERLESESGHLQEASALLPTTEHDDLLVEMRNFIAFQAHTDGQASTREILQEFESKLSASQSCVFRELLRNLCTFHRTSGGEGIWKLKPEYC

percent of the isolated CSB molecules associated (iBAQ): > 60%
Substance: RNA polymerase II (RNAPII), endogenous (from UniProt P24928 1-1970) (complex)

From paper PMC7910549
